From article PMC6391106

target: WT murine C3b (mouse) (UniProt P01027); experiment: SPR; BIAcore S200; murine C3b (WT or Asn1115) amine coupled to a CM5 chip (930 ± 10 RU); analytes in 2-fold dilution series in HBST (10 mM HEPES, 150 mM NaCl, 0.005% Tween-20, pH 7.4), 30 μl/min for 200 s; steady-state model

full-length mouse serum-derived FH, sequence (P06909 19-1234): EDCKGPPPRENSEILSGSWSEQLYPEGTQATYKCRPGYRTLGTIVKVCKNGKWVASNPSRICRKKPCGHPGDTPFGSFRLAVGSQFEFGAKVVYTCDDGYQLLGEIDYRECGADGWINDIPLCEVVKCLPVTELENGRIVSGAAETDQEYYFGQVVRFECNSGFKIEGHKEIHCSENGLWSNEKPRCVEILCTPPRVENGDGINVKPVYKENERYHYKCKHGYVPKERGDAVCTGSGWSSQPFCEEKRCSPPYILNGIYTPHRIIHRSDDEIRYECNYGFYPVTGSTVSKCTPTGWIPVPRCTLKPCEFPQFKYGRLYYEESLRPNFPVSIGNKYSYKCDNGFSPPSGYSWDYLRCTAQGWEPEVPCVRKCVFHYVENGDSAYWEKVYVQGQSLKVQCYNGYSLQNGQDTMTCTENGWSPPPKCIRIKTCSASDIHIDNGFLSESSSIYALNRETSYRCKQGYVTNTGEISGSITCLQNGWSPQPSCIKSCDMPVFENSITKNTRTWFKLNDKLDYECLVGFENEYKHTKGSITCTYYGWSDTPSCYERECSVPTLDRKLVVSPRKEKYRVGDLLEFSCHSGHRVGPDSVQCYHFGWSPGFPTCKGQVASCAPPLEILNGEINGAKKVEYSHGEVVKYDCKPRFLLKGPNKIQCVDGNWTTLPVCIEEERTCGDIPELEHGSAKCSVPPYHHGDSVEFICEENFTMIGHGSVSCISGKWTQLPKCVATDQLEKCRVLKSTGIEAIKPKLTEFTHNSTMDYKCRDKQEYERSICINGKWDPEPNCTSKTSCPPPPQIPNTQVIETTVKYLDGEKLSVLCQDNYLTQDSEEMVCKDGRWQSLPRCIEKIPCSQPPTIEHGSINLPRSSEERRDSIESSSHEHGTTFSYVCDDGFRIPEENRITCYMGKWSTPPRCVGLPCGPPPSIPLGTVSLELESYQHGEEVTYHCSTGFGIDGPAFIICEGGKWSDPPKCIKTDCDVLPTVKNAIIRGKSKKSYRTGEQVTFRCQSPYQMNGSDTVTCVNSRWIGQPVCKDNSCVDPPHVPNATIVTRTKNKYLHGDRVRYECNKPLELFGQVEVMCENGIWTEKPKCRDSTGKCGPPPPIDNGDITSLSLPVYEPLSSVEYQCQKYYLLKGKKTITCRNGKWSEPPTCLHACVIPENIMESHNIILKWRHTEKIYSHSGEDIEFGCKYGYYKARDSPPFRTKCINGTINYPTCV

Kd | Substance
1.4 µM | full-length mouse serum-derived FH (from UniProt P06909 19-1234) (natural protein)
9.4 µM | recombinant human FH SCRs 19–20 (domain or fragment)
3.2 µM | recombinant murine Crry SCRs 1–5 (domain or fragment)
2.9 µM | recombinant murine FH SCRs 1–5 (domain or fragment)
